Laboratory results as given in article PMC12373898 (Communications Biology, 2025).

Target: F-actin (pre-assembled, AlexaFluor-labeled) (rabbit, UniProt P68135 1-377, AlexaFluor-labeled actin added to the polymerisation)
Test: TIRF microscopy in vitro reconstitution

B1: His-GFP-Maspin-StrepII (natural protein)
chain: MDALQLANSAFAVDLFKQLCEKEPLGNVLFSPICLSTSLSLAQVGAKGDTANEIGQVLHFENVKDVPFGFQTVTSDVNKLSSFYSLKLIKRLYVDKSLNLSTEFISSTKRPYAKELETVDFKDKLEETKGQINNSIKDLTDGHFENILADNSVNDQTKILVVNAAYFVGKWMKKFSESETKECPFRVNKTDTKPVQMMNMEATFCMGNIDSINCKIIELPFQNKHLSMFILLPKDVEDESTGLEKIEKQLNSESLSQWTNPSTMANAKVKLSIPKFKVEKMIDPKACLENLGLKHIFSEDTSDFSGMSETKGVALSNVIHKVCLEITEDGGDSIEVPGARILQHKDELNADHPFIYIIRHNKTRNIIFFGKFCSP
Question: Does B1 bind?
Answer: binds
